From article PMC8752837, “Structural basis of BAK activation in mitochondrial apoptosis initiation” (Nature Communications, 2022)

System: BCL2allKO HCT116 cells reconstituted with Dox-inducible mC-BAK
Assay: Dox-induced cell death by IncuCyte imaging of SYTOX Green uptake (autoactivation)
Format: cell-based, human
Conditions: for SYTOX Green +ve counts/confluence AUC of kinetic traces: Fig 3d; for AUC (48 hr) of SYTOX Green counts/confluence: mC-BAK BCL2allKO HCT116 + Dox + qVD, average, N = 3
Excerpt: For mammalian cell culture experiments, we cloned the full length human BAK cDNA into pCR 2.1 TOPO vector, mutated BAK as needed, and PCR amplified the BAK gene for cloning into the BamHI and NotI sites of pRETROX mCherry vector for retroviral transduction. Amplification and mutagenesis primers are included in Supplementary Table 4. To test direct BAK activation and BAK autoactivation in cells, we produced cells stably expressing mCherry-human BAK (mC-BAK) ± human BID (BID) on a genetic background devoid of the entire BCL-2 family repertoire (all 17 BCL-2 genes), BCL2allKO HCT116, as described by the Xu Luo laboratory. We expressed WT and mutant mC-BAK using the doxycycline (Dox)-based inducible Tet-On 3G retroviral system from the pRetroX-TRE3G-Puro^R in BCL2allKO HCT116 cells expressing the Tet3G from pRetroX-Tet3G-Blast^R. We selected cells with puromycin (2.5 µg/mL) and blasticidin (2 µg/mL) starting at 2 days after retroviral transduction. To enrich for populations of cells that express mC-BAK, we treated cells with low Dox dose (25 ng/mL) and fluorescence-activated cell sorted (FACS) the mCherry positive cells. We performed the enrichment twice before cell death analysis. One caveat of our cellular system is tagging BAK with N-terminal mCherry, which may affect folding efficiency, degradation, and BAK interactome.
We seeded cells in 24-well (100,000 cells/well), 96-well (15,000 cells/well), or 384-well (10,000 cells/well) plates coated with 10 µg/mL fibronectin. After ≥24 h of attachment and recovery, we induced cell death with Dox (up to 1000 ng/mL) and monitored SYTOX Green (25 nM) uptake by Incucyte imaging. This dye marks cells with compromised plasma membrane integrity. mC-BAK expressed before 24 h, which coincided with detectable cell death. We monitored Incucyte imaging for up to 48 h, followed by endpoint FACS analysis to measure the extent of cell death based on SYTOX Green positive cells on FACSCalibur systems (BD Biosciences). As expected, cells with low mCherry fluorescence were refractory to cell death.

B1: V74A (1): BAK missense mutant, WT-like; in cells as mCherry fusion (protein)
chain: MASGQGPGPPRQECGEPALPSASEEQVAQDTEEVFRSYVFYRHQQEQEAEGVAAPADPEMVTLPLQPSSTMGQAGRQLAIIGDDINRRYDSEFQTMLQHLQPTAENAYEYFTKIATSLFESGINWGRVVALLGFGYRLALHVYQHGLTGFLGQVTRFVVDFMLHHCIARWIAQRGGWVAALNLGNG
modifications: left off: His6, C-terminal, kept
notes: BAK missense mutant, WT-like; in cells as mCherry fusion
- SYTOX Green +ve counts/confluence AUC of kinetic traces (Dox 6.25 ng/mL): 290.31
- SYTOX Green +ve counts/confluence AUC of kinetic traces (Dox 6.25 ng/mL + qVD): 201.143
- SYTOX Green +ve counts/confluence AUC of kinetic traces (Dox 12.5 ng/mL): 574.561
- SYTOX Green +ve counts/confluence AUC of kinetic traces (Dox 12.5 ng/mL + qVD): 218.508
- SYTOX Green +ve counts/confluence AUC of kinetic traces (Dox 25 ng/mL): 828.325
- SYTOX Green +ve counts/confluence AUC of kinetic traces (Dox 25 ng/mL + qVD): 220.818
- SYTOX Green +ve counts/confluence AUC of kinetic traces (Dox 50 ng/mL): 1653.15
- SYTOX Green +ve counts/confluence AUC of kinetic traces (Dox 50 ng/mL + qVD): 333.116
- SYTOX Green +ve counts/confluence AUC of kinetic traces (Dox 100 ng/mL): 2313.65
- SYTOX Green +ve counts/confluence AUC of kinetic traces (Dox 100 ng/mL + qVD): 342.619
- SYTOX Green +ve counts/confluence AUC of kinetic traces (Dox 500 ng/mL): 2761.33
- SYTOX Green +ve counts/confluence AUC of kinetic traces (Dox 500 ng/mL + qVD): 584.364
- SYTOX Green +ve counts/confluence AUC of kinetic traces (Dox 1000 ng/mL): 2775.53
- SYTOX Green +ve counts/confluence AUC of kinetic traces (Dox 1000 ng/mL + qVD): 699.139
- Dox-induced cell death (IncuCyte SYTOX Green up to 48 h): induces cell death faster than I81A(3) or D83A(s) irrespective of Dox dose
- AUC (48 hr) of SYTOX Green counts/confluence (Dox 100 ng/mL): 79832.2
- AUC (48 hr) of SYTOX Green counts/confluence (Dox 1000 ng/mL): 98530.5
